In patent US20210069342A1 (LEGOCHEM BIOSCIENCES, published 2021):

Key:
[1] = biological target: T1, recombinant mouse ROR1 protein (Acrobiosystems, RO1-M5221) (mouse, UniProt Q9Z139 30-403); experiment: ELISA, wells coated with recombinant mouse ROR1 protein, IgG titrated, HRP anti-Fab detection, OD (450-650nm)
T1 construct: Bought protein; also called mouse ROR1 antigen
Experimental: (§1) Anti-ROR1 antibody antigen binding affinity was assessed using an ELISA-based solution binding assay. Specifically, a 96-well microtiter plate (Nunc-Immuno Plates), NUNC) was coated for 16 hours at 4° C. with the ROR1 protein described below at a concentration of 1 in PBS solution, and non-specific binding sites were blocked for 2 hours with 3% BSA (bovine serum albumin). Here, the ROR1 protein used was, in the case of human ROR1, the ROR1-Fc or recombinant human ROR1-His (Sino Biological, 13968-H08H) of Embodiment 1. The ROR1-His used in ELISA, as stated in the above sentence, was a protein from the Sino Biological company (13968-H08H), and the ROR1-His of Embodiment 1 or recombinant mouse ROR1 protein was used (Acrobiosystems, RO1-M5221-100 )
(§2) Subsequently, the anti-ROR1 antibodies prepared in Embodiment 3 were added at the concentrations stated in FIG. 2 to a 96-well microtiter plate, and binding capacity was analyzed using ELISA as follows. Specifically, after incubating for 2 hours, the plate was washed 5 times with PBS containing 0.05% Tween 20, then HRP-conjugated Fab multiclonal antibody reagent (Perce, 31414) was diluted to 1:10,000 and placed in the washed microtiter plate. After reacting for 1 hour at 37° C., the ROR1 antibodies bonded to the plate were detected. After the reaction, color development was performed using TMB (Tetramethylbenzidine, Sigma, T0440). The enzymatic reaction was stopped using 0.5 mol/L sulfuric acid, and absorbance at 450 nm and 650 nm was measured (450 nm-650 nm) using a micro plate reader (Molecular Device)

[2] = biological target: T2, human ROR1 expressed on the cell surface (human, UniProt Q01973 30-937); experiment: flow cytometry on HCT116 cells (colon cancer), C2E3 IgG, FITC anti-human Fc detection
T2 construct: whole, on cells; also called cell surface-expressed ROR1 antigen; ROR1 on JeKo-1, Mino, CHO-human ROR1, MC38-human ROR1 and other cancer cell lines
Experimental: (§3) FACS analysis (FACSCalibur, BD Biosciences) was used to analyze the binding of the anti-ROR1 antibody of the present invention to ROR1 in the above cell lines.
(§4) Specifically, the respective cell lines were dissociated and washed in PBS, then the numbers of cells were counted and adjusted to 2×10⁵ cells/200 PBS. Then, they were treated with 10 /mL of the antibody of clone name C2E3 of the ROR1 monoclonal antibodies prepared in Embodiment 3, and reacted for 1 hour at 4° C. After the reaction, the cells were washed in PBS, then FITC-marked constant region (Fc) specific antibody (Goat anti-human IgG FITC conjugate, Fc specific, Sigma, F9512, concentration 20 mg/ml) was suspended in 2 /1×10⁵ cells/200 PBS and reacted for 1 hour at 4° C. After reacting, the cells were washed with PBS and analyzed with the FACSCalibur equipment. The negative control was only treated with FITC-marked constant region (Fc) specific antibody. To compare the degree of ROR1 expression among the respective cancer cell lines, the quotient of dividing the shifted readings for the experimental group treated with the ROR1 monoclonal antibody (C2E3) of the present invention by the shifted readings for the control group (MFI Ratio: MFI of anti-ROR1/MFI or 2nd Ab) is indicated.

[3] = biological target: T2, human ROR1 expressed on the cell surface; experiment: flow cytometry on NCI-N87 cells (gastric cancer), C2E3 IgG, FITC anti-human Fc detection
Experimental: as §3, §4

[4] = biological target: T3, recombinant human ROR1-His (Sino Biological, 13968-H08H) (human, UniProt Q01973 30-406); experiment: ELISA, wells coated with human ROR1 protein (sheet: 'human ROR1'; text: ROR1-Fc or ROR1-His), IgG titrated, HRP anti-Fab detection, OD (450-650nm)
T3 construct: extracellular domain; Bought protein; also called ROR1-HIS protein; not shown: His tag
Experimental: as §1, §2

[5] = biological target: T2, human ROR1 expressed on the cell surface; experiment: flow cytometry on AGS cells (gastric cancer), C2E3 IgG, FITC anti-human Fc detection
Experimental: as §3, §4

[6] = biological target: T2, human ROR1 expressed on the cell surface; experiment: flow cytometry on MC38-human ROR1 cells, IgG titrated, FITC anti-human Fc detection, MFI ratio to 2nd Ab alone; log axis whose first tick is printed 0
From the text: For this experiment, using cell lines (FIG. 5 and FIG. 7, respectively) transiently (CHO-human ROR1, CHO-human ROR2, CHO-mouse ROR1) or stably (MC38-human ROR1) transfected with ROR1 gene to achieve artificial over-expression of ROR1 protein, an ROR1-expressing cell line (JeKo-1, Mino) (FIG. 6), a non ROR1-expressing cell line (MCF7) (FIG. 6) and a FACSCalibur (BD Biosciences) device was used to measure the degree to which anti-ROR1 antibody and ROR1 were bound, as follows. […] JeKo-1, Mino, CHO-human ROR1, CHO-mouse ROR1 and MC38-human ROR1 are all cell lines which express human ROR1 or mouse ROR1.
Specifically, after dissociating each cell line and washing in PBS, the number of cells was counted and adjusted to 2×10⁵ cells/200 PBS. Then the respective ROR1 monoclonal antibodies prepared in Embodiment 3 were diluted 5 times from 10 /mL or 10 /mL, then reacted for 1 hour at 4° C. After the reaction, the cells were washed in PBS, then FITC-marked constant region (Fc) specific antibody (Goat anti-human IgG FITC conjugate, Fc specific, Sigma, F9512, concentration 20 mg/ml) was suspended in 2 /1×10⁵ cells/200 PBS and reacted for 1 hour at 4° C. As for identification of the degree of expression of the transiently over-expressed human ROR1, human ROR2 and mouse ROR1, a commercially available FACS analysis antibody (anti-ROR1: R&D Systems, FAB 2000G, anti-ROR2: R&D, FAB20641P) was used. After reacting the cells were washed in PBS and analyzed using a FACSCalibur device. The negative control (2nd Ab) was only treated with FITC-marked constant region (Fc) specific antibody. The shifted readings for the respective experimental groups treated with ROR1 monoclonal antibody were compared against the shifted reading for the control group (MFI Ratio: MFI of anti-ROR1/MFI of 2nd Ab).

[7] = biological target: T2, human ROR1 expressed on the cell surface; experiment: flow cytometry on MKN-28 cells (gastric cancer), C2E3 IgG, FITC anti-human Fc detection
Experimental: as §3, §4

T2 sequence (Q01973 30-937): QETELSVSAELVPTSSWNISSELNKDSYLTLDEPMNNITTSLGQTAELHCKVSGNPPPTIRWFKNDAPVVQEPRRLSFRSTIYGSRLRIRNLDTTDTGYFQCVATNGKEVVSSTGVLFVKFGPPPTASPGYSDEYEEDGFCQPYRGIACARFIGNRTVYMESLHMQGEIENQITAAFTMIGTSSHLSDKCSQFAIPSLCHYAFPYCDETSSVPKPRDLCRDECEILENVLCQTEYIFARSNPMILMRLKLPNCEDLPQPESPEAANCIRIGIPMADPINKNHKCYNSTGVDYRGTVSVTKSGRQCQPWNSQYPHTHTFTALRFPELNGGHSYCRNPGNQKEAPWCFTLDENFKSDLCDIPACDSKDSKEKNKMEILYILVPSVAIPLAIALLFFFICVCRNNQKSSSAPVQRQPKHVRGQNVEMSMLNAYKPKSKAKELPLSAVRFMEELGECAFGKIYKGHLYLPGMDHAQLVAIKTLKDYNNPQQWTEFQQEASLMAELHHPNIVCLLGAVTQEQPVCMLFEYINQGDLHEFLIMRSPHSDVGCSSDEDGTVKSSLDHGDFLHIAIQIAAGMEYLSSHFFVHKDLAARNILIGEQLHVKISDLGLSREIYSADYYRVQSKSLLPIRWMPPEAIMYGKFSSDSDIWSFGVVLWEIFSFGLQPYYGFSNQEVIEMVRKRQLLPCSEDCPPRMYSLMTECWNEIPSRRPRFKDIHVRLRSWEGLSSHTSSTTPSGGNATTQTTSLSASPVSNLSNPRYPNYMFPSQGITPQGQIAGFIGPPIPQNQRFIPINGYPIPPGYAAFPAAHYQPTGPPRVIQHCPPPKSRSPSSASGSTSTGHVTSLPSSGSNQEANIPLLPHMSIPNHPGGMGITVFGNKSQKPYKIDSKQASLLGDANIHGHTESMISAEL
T1 sequence (Q9Z139 30-403 limits assumed): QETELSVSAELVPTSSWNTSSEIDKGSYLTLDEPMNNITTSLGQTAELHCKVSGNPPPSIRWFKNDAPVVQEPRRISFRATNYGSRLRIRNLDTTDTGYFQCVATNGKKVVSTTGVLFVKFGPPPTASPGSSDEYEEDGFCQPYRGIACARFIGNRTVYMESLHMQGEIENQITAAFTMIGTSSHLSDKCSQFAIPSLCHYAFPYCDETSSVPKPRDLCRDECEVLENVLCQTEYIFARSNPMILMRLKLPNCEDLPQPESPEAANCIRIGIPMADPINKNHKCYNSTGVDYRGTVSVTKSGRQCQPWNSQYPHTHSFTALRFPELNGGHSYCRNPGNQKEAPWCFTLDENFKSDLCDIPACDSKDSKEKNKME
T3 sequence (Q01973 30-406): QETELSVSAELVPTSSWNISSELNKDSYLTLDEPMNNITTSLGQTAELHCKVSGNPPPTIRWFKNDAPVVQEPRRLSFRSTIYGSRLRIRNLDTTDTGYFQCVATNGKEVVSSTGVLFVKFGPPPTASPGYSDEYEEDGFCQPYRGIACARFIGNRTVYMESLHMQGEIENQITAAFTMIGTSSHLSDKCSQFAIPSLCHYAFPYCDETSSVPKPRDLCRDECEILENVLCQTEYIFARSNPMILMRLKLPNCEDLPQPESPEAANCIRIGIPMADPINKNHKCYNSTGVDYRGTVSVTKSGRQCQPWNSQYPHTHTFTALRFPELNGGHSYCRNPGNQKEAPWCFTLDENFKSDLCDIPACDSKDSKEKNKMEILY

B1: anti-ROR1 IgG antibody C2E3 (antibody, V domains shown)
VH: EVQLLESGGGLVQPGGSLRLSCAASGFTFSNYAMSWVRQAPGKGLEWVSSISHNSGSTYYADSVKGRFTISRDNSKNTLYLQMNSLRAEDTAVYYCAKFISARKSLGRSYSNGMDVWGQGTLVTVSS
VL: QSVLTQPPSASGTPGQRVTISCTGSSSNIGSNDVTWYQQLPGTAPKLLIYADSKRPSGVPDRFSGSKSGTSASLAISGLRSEDEADYYCGTWDYSLSGYVFGGGTKLTVLG
notes: Full IgG form (human IgG1 constant region, lambda light chain), expressed in CHO-S cells
EC50 (read off the curve) [1]: ~0.3 nM | Mean Fold Ratio (MFI of anti-ROR1 / MFI of 2nd Ab) [2]: 18 | Mean Fold Ratio (MFI of anti-ROR1 / MFI of 2nd Ab) [3]: 11.8 | EC50 (read off the curve) [4]: ~0.2 nM | Mean Fold Ratio (MFI of anti-ROR1 / MFI of 2nd Ab) [5]: 12.3 | EC50 (read off the curve) [6]: ~0.1 µg/mL | Mean Fold Ratio (MFI of anti-ROR1 / MFI of 2nd Ab) [7]: 4.9
